Measured values taken from article PMC12859064.

Molecular target: Flag-Axin1 (mouse)
Assay: SPR; BIAcore 8K, CM5 chip; Flag-Axin1 immobilised by amine coupling (20 μg/mL, sodium acetate pH 4.5); analytes 25-400 nM, 30 μL/min, 120 s association, 300 s dissociation; step of the Axin1 self-association not told

Molecule | Kd [nM]
Flag-Axin1 (natural protein) | 147
Flag-TRIM15 (natural protein) MPATPSLKVVHELPACTLCAGPLEDAVTIPCGHTFCRLCLPALSQMGAQSSGKILLCPLCQEEEQAETPMAPVPLGPLGETYCEEHGEKIYFFCENDAEFLCVFCREGPTHQAHTVGFLDEAIQPYRDRLRSRLEALSTERDEIEDVKCQEDQKLQVLLTQIESKKHQVETAFERLQQELEQQRCLLLARLRELEQQIWKERDEYITKVSEEVTRLGAQVKELEEKCQQPASELLQDVRVNQSRCEMKTFVSPEAISPDLVKKIRDFHRKILTLPEMMRMFSENLAHHLEIDSGVITLDPQTASRSLVLSEDRKSVRYTRQKKSLPDSPLRFDGLPAVLGFPGFSSGRHRWQVDLQLGDGGGCTVGVAGEGVRRKGEMGLSAEDGVWAVIISHQQCWASTSPGTDLPLSEIPRGVRVALDYEAGQVTLHNAQTQEPIFTFTASFSGKVFPFFAVWKKGSCLTLKG | 37.8
